Assay results from patent US20210093667.

Columns and labels:
[1] = tested on: dPspCas13b-ADAR1DD H133A,H1058A (Prevotella sp. P5-125 / Homo sapiens); test: cell_activity; settings: on-target A-to-I RNA editing
[2] = tested on: dPspCas13b-ADAR2DD(E488Q) (REPAIRv1) H133A,H1058A (Prevotella sp. P5-125 / Homo sapiens); test: cell_activity

Cluc W85X targeting guide ; Cluc W85X transcript (254 A>G site)
activity [1]: 29 % editing | activity ([2]; 10 ng Cas13-ADAR transfected): 80 % editing | activity ([2]; 150 ng Cas13-ADAR transfected): 83 % editing | activity ([2]; on-target A-to-I RNA editing): 71 % editing
